Laboratory results as given in paper PMC4201484.

Key:
β-TrCP2 = β-TrCP2 (UniProt Q9UKB1); experiment: co-IP, anti-HA IP, anti-Flag blot; conditions: reference: wild type; sites S525
β-TrCP1 = β-TrCP1 (UniProt Q9Y297); experiment: co-IP, anti-HA IP, anti-Flag blot; conditions: reference: wild type; sites S525

binding against the reference (β-TrCP2): weaker
binding against the reference (β-TrCP1): weaker
Substance: Rap1GAP (from UniProt P47736) S525A
